Test results reported in article PMC12072466, “Mechanisms of Viral DNA Replication of Human Papillomavirus: E2 Protein-Dependent Recruitment of E1 DNA Helicase to the Origin of DNA Replication” (International Journal of Molecular Sciences, 2025).

Key:
E1 helicase;E2 [1] = molecular target: T1, E1 helicase;E2 (Human papillomavirus 16 (Methods 4.2; …, UniProt P03114;P03120 1-649;1-365, |); assay: EMSA; 4 mM Mg2+, 1.4 mM ATP; E2 2.8 nM, E1 43-347 nM; C2* and C3* complexes; conditions: protein: recombinant;recombinant; tags: C-terminal 10xHis;C-terminal 10xHis; chain copies: 6;2; label: 5' 32P; blunt
T1 sequence (P03120 whole entry, one chain of several): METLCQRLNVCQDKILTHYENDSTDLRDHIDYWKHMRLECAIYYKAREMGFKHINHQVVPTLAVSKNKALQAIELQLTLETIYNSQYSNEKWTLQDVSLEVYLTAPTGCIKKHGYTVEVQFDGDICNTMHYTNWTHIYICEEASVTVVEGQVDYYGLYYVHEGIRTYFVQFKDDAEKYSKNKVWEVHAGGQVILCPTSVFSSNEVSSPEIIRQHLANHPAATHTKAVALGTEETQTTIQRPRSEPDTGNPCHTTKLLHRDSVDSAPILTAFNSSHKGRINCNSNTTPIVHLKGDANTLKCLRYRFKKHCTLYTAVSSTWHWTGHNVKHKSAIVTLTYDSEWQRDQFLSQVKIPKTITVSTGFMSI

E2 [2] = molecular target: T2, E2 (Human papillomavirus 16 (Methods 4.2; …, UniProt P03120 1-365); assay: EMSA; 4 mM Mg2+, 1.4 mM ATP; E2 2.8 nM; C1* complex, two E2 dimers; conditions: protein: recombinant; tags: C-terminal 10xHis; chain copies: 2; label: 5' 32P; blunt
T2 sequence (P03120 whole entry): as the sequence (P03120 whole entry, one chain of several) above

E2 [3] = molecular target: T2, E2; assay: EMSA; 4 mM Mg2+, 1.4 mM ATP; E2 2.8 nM; C1* complex, E2 dimer; conditions: protein: recombinant; tags: C-terminal 10xHis; chain copies: 2; label: 5' 32P; blunt
[4] = molecular target: the molecule itself; assay: dynamic light scattering; purified E1 in solution; oligomeric state; conditions not shown (Figure S3)
E1 helicase;E2 [5] = molecular target: T1, E1 helicase;E2; assay: EMSA; 4 mM Mg2+, 1.4 mM ATP; E2 2.8 nM, E1 43-347 nM; C3* complex even at low E1; conditions: protein: recombinant;recombinant; tags: C-terminal 10xHis;C-terminal 10xHis; chain copies: 6;2; label: 5' 32P; blunt

B1: Oligo I, E2 BS1+2+E1BS (124 bp) (dsDNA)
DNA 1: GTAACCCACACCCTACATATTTCCTTCTTATACTTAATAACAATCTTAGTTTAAAAAAGAGGAGGGACCGAAAACGGTTCAACCGAAAACGGTTATATATAAACCAGCCCAAAAAATTAGCAGA
DNA 2: TCTGCTAATTTTTTGGGCTGGTTTATATATAACCGTTTTCGGTTGAACCGTTTTCGGTCCCTCCTCTTTTTTAAACTAAGATTGTTATTAAGTATAAGAAGGAAATATGTAGGGTGTGGGTTAC
B1: binds (E1 helicase;E2 [1]); binds (E2 [2]).

B2: Oligo III, E2 BS (24 bp) (dsDNA)
DNA 1: CTTGCAACCGTTTTCGGTTGCCCT
DNA 2: AGGGCAACCGAAAACGGTTGCAAG
B2: binds (E2 [3]).

B3: full-length HPV16 E1 helicase (enzyme)
chain: MADPAGTNGEEGTGCNGWFYVEAVVEKKTGDAISDDENENDSDTGEDLVDFIVNDNDYLTQAETETAHALFTAQEAKQHRDAVQVLKRKYLVSPLSDISGCVDNNISPRLKAICIEKQSRAAKRRLFESEDSGYGNTEVETQQMLQVEGRHETETPCSQYSGGSGGGCSQYSSGSGGEGVSERHTICQTPLTNILNVLKTSNAKAAMLAKFKELYGVSFSELVRPFKSNKSTCCDWCIAAFGLTPSIADSIKTLLQQYCLYLHIQSLACSWGMVVLLLVRYKCGKNRETIEKLLSKLLCVSPMCMMIEPPKLRSTAAALYWYKTGISNISEVYGDTPEWIQRQTVLQHSFNDCTFELSQMVQWAYDNDIVDDSEIAYKYAQLADTNSNASAFLKSNSQAKIVKDCATMCRHYKRAEKKQMSMSQWIKYRCDRVDDGGDWKQIVMFLRYQGVEFMSFLTALKRFLQGIPKKNCILLYGAANTGKSLFGMSLMKFLQGSVICFVNSKSHFWLQPLADAKIGMLDDATVPCWNYIDDNLRNALDGNLVSMDVKHRPLVQLKCPPLLITSNINAGTDSRWPYLHNRLVVFTFPNEFPFDENGNPVYELNDKNWKSFFSRTWSRLSLHEDEDKENDGDSLPTFKCVSGQNTNTL
notes: Replication protein E1 (DNA helicase) of human papillomavirus type 16, full-length, codon-optimized synthetic gene in pET28a; about 75 kDa on SDS-PAGE; Hexamer in solution by dynamic light scattering; also called HPV E1; E1 DNA helicase
In the case of B3, the “stoichiometry N” value [4] is reported as 6.

B4: Oligo II, E2 BS1+2 (50 bp) (dsDNA)
DNA 1: GGCGGGACCGAAAACGGTTCAACCGAAAACGGTTATATATAAACCAGCCC
DNA 2: GGGCTGGTTTATATATAACCGTTTTCGGTTGAACCGTTTTCGGTCCCGCC
B4: binds (E1 helicase;E2 [5]).
